Source: patent US20230416366A1 (Hoffmann-La Roche, published 2023)

B1: CD28(SA)_variant_25 (antibody, human IgG1, kappa, L234A L235A)
heavy: not shown
light: not shown
chain: DKTHTCPPCPAPEAAGGPSVFLFPPKPKDTLMISRTPEVTCVVVDVSHEDPEVKFNWYVDGVEVHNAKTKPREEQYNSTYRVVSVLTVLHQDWLNGKEYKCKVSNKALGAPIEKTISKAKGQPREPQVCTLPPSRDELTKNQVSLSCAVKGFYPSDIAVEWESNGQPENNYKTTPPVLDSDGSFFLVSKLTVDKSRWQQGNVFSCSVMHEALHNRFTQKSLSLSP
notes: monovalent one-armed IgG-like construct (hu IgG1 PGLALA), tested from HEK supernatant without purification; also called P1AE3081
B2: CD28(SA)_variant_26 (antibody, human IgG1, kappa, L234A L235A)
heavy: not shown
light: not shown
chain: B1 chain
notes: monovalent one-armed IgG-like construct (hu IgG1 PGLALA), tested from HEK supernatant without purification; also called P1AE3082
B3: CD28(SA)_variant_27 (antibody, human IgG1, kappa, L234A L235A)
heavy: not shown
light: not shown
chain: B1 chain
notes: monovalent one-armed IgG-like construct (hu IgG1 PGLALA), tested from HEK supernatant without purification; also called P1AE3083
B4: CD28(SA)_variant_30 (antibody, human IgG1, kappa, L234A L235A)
heavy: not shown
light: DIQMTQSPSSLSASVGDRVTITCRASQNIYVWLNWYQQKPGKAPKLLIYKASNLYSGVPSRFSGSRSGTDFTLTISSLQPEDFATYYCQQGQTYPYTFGQGTKLEIKRTVAAPSVFIFPPSDRKLKSGTASVVCLLNNFYPREAKVQWKVDNALQSGNSQESVTEQDSKDSTYSLSSTLTLSKADYEKHKVYACEVTHQGLSSPVTKSFNRGEC
chain: B1 chain
notes: monovalent one-armed IgG-like construct (hu IgG1 PGLALA), tested from HEK supernatant without purification; also called P1AE3086
B5: CD28(SA)_variant_31 (antibody, human IgG1, kappa, L234A L235A)
heavy: not shown
light: not shown
chain: B1 chain
notes: monovalent one-armed IgG-like construct (hu IgG1 PGLALA), tested from HEK supernatant without purification; also called P1AE3087
B6: CD28(SA)_variant_29 (antibody, human IgG1, kappa, L234A L235A)
heavy: not shown
light: not shown
chain: B1 chain
notes: monovalent one-armed IgG-like construct (hu IgG1 PGLALA), tested from HEK supernatant without purification; also called P1AE3085

What follows are binders tested against T1, human CD28 on Jurkat reporter cells (human, UniProt P10747 19-220) (assay: flow cytometry, MFI (PE) of PE-conjugated anti-human secondary, CHO cells stably overexpressing human CD28; monovalent one-armed IgG from supernatant).
T1 construct: Endogenous CD28 of Jurkat NFAT / Jurkat IL2 reporter cells; also called hu CD28
Method: Binding was assessed by flow cytometry with a FACS Fortessa (BD, Software FACS Diva). Binding curves were obtained using GraphPadPrism6.

binding result	Binder
binds	B1
binds	B2
binds	B3
binds	B4
binds	B5
binds	B6
